The text below walks through data of IntAct's records for PubMed 23010927.

To fix the notation:
B1: Multidrug efflux pump accessory protein AcrZ (Escherichia coli (strain K12)), P0AAW9 (parent)
chain: MLELLKSLVFAVIMVPVVMAIILGLIYGLGEVFNIFSGVGKKDQPGQNH
partner: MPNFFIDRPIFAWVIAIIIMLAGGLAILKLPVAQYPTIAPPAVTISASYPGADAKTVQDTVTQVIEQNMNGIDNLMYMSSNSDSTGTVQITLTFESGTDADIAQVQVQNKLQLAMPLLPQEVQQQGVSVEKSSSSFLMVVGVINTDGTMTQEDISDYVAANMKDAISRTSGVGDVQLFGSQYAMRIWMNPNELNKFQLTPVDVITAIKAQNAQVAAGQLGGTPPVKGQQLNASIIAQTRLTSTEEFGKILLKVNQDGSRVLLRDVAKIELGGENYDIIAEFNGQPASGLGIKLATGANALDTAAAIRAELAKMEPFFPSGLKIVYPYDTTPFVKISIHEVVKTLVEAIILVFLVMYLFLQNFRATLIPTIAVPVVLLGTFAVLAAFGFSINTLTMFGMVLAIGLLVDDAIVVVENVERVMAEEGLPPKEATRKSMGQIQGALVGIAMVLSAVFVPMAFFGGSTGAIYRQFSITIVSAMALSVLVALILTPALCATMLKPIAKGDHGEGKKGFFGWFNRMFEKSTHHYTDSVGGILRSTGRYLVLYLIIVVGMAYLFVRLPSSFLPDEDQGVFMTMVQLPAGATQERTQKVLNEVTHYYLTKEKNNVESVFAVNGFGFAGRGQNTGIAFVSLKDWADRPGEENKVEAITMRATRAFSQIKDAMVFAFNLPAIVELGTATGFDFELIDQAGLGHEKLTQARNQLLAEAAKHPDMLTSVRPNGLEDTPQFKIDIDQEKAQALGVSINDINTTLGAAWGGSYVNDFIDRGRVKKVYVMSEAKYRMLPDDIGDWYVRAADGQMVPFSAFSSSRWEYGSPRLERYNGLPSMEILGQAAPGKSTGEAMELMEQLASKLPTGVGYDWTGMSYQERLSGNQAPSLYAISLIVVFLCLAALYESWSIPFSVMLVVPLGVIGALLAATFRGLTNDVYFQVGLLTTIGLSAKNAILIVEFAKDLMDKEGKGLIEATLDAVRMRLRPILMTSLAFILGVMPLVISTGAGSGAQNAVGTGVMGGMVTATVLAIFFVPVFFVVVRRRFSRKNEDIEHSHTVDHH

The test covers variants of B1. The note with it: with acrb_ecoli acrB.
For the variant G30R, the “effect of a mutation on the interaction” value was “disrupting interaction”.
